Test results taken from article PMC11470957, “Principles of paralog-specific targeted protein degradation engaging the C-degron E3 KLHDC2” (Nature Communications, 2024).

B1: BRD3^BD2 (second bromodomain of BRD3, residues 306-416) [not stated] / KLHDC2 substrate binding domain (KLHDC2^SBD, 15-361) [not stated] (parent)
chain 1: GPAFESYESMELACPAERSGHVAVSDGRHMFVWGGYKSNQVRGLYDFYLPREELWIYNMETGRWKKINTEGDVPPSMSGSCAVCVDRVLYLFGGHHSRGNTNKFYMLDSRSTDRVLQWERIDCQGIPPSSKDKLGVWVYKNKLIFFGGYGYLPEDKVLGTFEFDETSFWNSSHPRGWNDHVHILDTETFTWSQPITTGKAPSPRAAHACATVGNRGFVFGGRYRDARMNDLHYLNLDTWEWNELIPQGICPVGRSWHSLTPVSSDHLFLFGGFTTDKQPLSDAWTYCISKNEWIQFNHPYTEKPRLWHTACASDEGEVIVFGGCANNLLVHHRAAHSNEILIFSVQP
chain 2: GKLSEHLRYCDSILREMLSKKHAAYAWPFYKPVDAEALELHDYHDIIKHPMDLSTVKRKMDGREYPDAQGFAADVRLMFSNCYKYNPPDHEVVAMARKLQDVFEMRFAKMP

Variants of: B1
Test: ITC
Settings: with KLHDC2 substrate binding domain (KLHDC2^SBD, 15-361); syringe: KLHDC2SBD; cell: E344G BRD3BD2-SJ46421 (ternary complex via PROTAC SJ46421); n = 2

Row | Kd [nM] | Variant
1 | 181 | chain 2 E39G

Same assay, conditions: with BRD3^BD2 (second bromodomain of BRD3, residues 306-416); syringe: R56A KLHDC2SBD; cell: BRD3BD2-SJ46421 (ternary complex via PROTAC SJ46421); n = 2

Row | Kd [nM] | Variant
2 | 273 | chain 1 R42A
